Test results taken from publication PMC11180174 (Nature Communications, 2024).

B1: LY-CoV1404 (also known as bebtelovimab) (antibody, V domains shown)
VH: QITLKESGPTLVKPTQTLTLTCTFSGFSLSISGVGVGWLRQPPGKALEWLALIYWDDDKRYSPSLKSRLTISKDTSKNQVVLKMTNIDPVDTATYYCAHHSISTIFDHWGQGTLVTVSS
VL: QSALTQPASVSGSPGQSITISCTATSSDVGDYNYVSWYQQHPGKAPKLMIFEVSDRPSGISNRFSGSKSGNTASLTISGLQAEDEADYYCSSYTTSSAVFGGGTKLTVL
notes: control antibody
B2: LY-CoV1404 (bebtelovimab) (antibody, V domains shown)
VH: B1 VH
VL: B1 VL
B3: neutralizing antibody 7F3 (antibody, V domains shown)
VH: EVQLVESGGGLVKPGRSLRLSCTASGFTFGDYAMSWFRQAPGKGLEWVGFIRSKAYGGTTEYAASVKGRFTISRDDSKSIAYLQMNSLKTEDTAVYYCTRDRYARYDILTGLSPAGADYFYYAMDVWGQGTTVTVSS
VL: EIVLTQSPATLSLSPGERATLSCRASQSVSSYLAWYQQKPGQAPRLLIYDASNRATGIPARFSGSGSGTDFTLTISSLEPEDFAVYYCQQRSNWPQYTFGQGTKLEIK
B4: 7F3 neutralizing antibody (IgG) (antibody, V domains shown)
VH: B3 VH
VL: B3 VL

Legend:
[1] = molecular target: T1, SARS-CoV-2 (Wuhan-Hu-1 strain) wild-type RBD, His-tagged (SARS-CoV-2 Wuhan-Hu-1 (MN908947.3), UniProt P0DTC2); assay: BLI; conditions: both partners purified
T1 construct: source: HEK293F, transiently transfected, purified (Ni Sepharose); not shown: 8xHis, C-terminal, kept

[2] = molecular target: T2, SARS-CoV-2 (Wuhan-Hu-1 strain) wild-type spike RBD-His (SARS-CoV-2 Wuhan-Hu-1 (MN908947.3), UniProt P0DTC2); assay: BLI; conditions: both partners purified
T2 construct: source: HEK293F, transfected, purified (Ni Sepharose); not shown: His8, C-terminal, kept

Row | Binder | Kd [1] | koff [1] | kon [1] | Kd [2] | koff [2] | kon [2]
1 | B1 | < 1 pM | < 1e-07 s⁻¹ | 79100 M⁻¹ s⁻¹ |  |  | 
2 | B2 |  |  |  | < 1 pM | < 1e-07 s⁻¹ | 79100 M⁻¹ s⁻¹
3 | B3 | < 1 pM | < 1e-07 s⁻¹ | 192000 M⁻¹ s⁻¹ |  |  | 
4 | B4 |  |  |  | < 1 pM | < 1e-07 s⁻¹ | 192000 M⁻¹ s⁻¹
